Assay results: the supplement of paper PMC9732359
± gives the uncertainty stated by the source.

Experiment: protein stability index of a GFP-peptide fusion (yeast GPS) (PSI 1-4); higher = more stable; sorted into four equal gates, so the index is relative within each strain
Method in brief: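 The protein stability index combines read frequencies across sorting gates, each weighted by its gate number and then summed. To obtain those frequencies, a pooled yeast library of GFP fusions to tiled 17-residue yeast protein peptides, on a plasmid also expressing Cherry, was grown to mid-log phase in leucine-free medium. The cells were sorted into four equal gates by GFP/Cherry ratio before plasmid amplification by PCR and Illumina sequencing.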

Row | Sequence | protein stability index (doa10∆) | protein stability index (pdr5∆) | protein stability index (san1∆) | protein stability index (ubr1∆)
1 | PYTGWVDSKTKEPVDDK [FAS2] | 3.05 ± 0.062 | 3.17 ± 0.069 | 3.05 ± 0.045 | 3.17 ± 0.053
2 | IKNFKSLLLSSSFKEDC [SSN2] | 2.82 ± 0.11 | 2.98 ± 0.094 | 2.96 ± 0.086 | 3.11 ± 0.086
3 | IPTLAIDSVEVETNTTV [RPB3] | 2.82 ± 0.22 | 2.44 ± 0.16 | 2.94 ± 0.083 | 2.98 ± 0.059
4 | LDKQIEELVEAIVLPMK [RPT5] | 2.97 ± 0.15 | 3.02 ± 0.15 | 3.45 ± 0.12 | 3.43 ± 0.15
5 | FKDRFKDEPVQNDILQE [FAS2] | 3.35 ± 0.13 | 3.03 ± 0.15 | 3.23 ± 0.072 | 3.46 ± 0.092
6 | SQSKGTVWSANFEYDLS [YOR098C/NUP1] |  | 3.35 ± 0.15 | 2.69 ± 0.28 | 3.38 ± 0.12
7 | NMMDAISFVLGVRSNHL [SMC1] | 2.28 ± 0.063 | 2.58 ± 0.079 | 2.77 ± 0.067 | 2.66 ± 0.064
8 | LDVSSDRRKARKAYFTA [RPL26A] | 1.79 ± 0.081 | 1.26 ± 0.082 | 2.42 ± 0.1 | 2.12 ± 0.07
9 | KENELLFGEKSILGKFC [YCS4] | 1.55 ± 0.04 | 1.72 ± 0.051 | 1.59 ± 0.11 | 1.73 ± 0.039
10 | SGGWGVPRKFKHFIQGG [RPL7A] |  | 3.23 ± 0.18 |  | 
11 | KKSKIQLLDIAEFKKEN [LIN1] | 1.42 ± 0.1 | 2.29 ± 0.13 | 2.44 ± 0.16 | 2.99 ± 0.11
12 | LFKGTGFNSWEGLFWEK [PRP8] | 2.44 ± 0.12 | 2.42 ± 0.13 | 3.36 ± 0.13 | 1.64 ± 0.04
13 | HEIITVGPHFKQANNFL [RPL7A] | 2.45 ± 0.062 | 2.7 ± 0.069 | 2.98 ± 0.061 | 2.54 ± 0.053
14 | RYLAVTLQDIGFYQIKK [YMR129W/POM152] | 2.53 ± 0.046 | 2.65 ± 0.043 | 2.73 ± 0.068 | 2.62 ± 0.043
15 | SVAVHFQYVIDESSGTS [SMC4] | 1.99 ± 0.081 | 1.6 ± 0.074 | 2.01 ± 0.074 | 1.77 ± 0.055
16 | VNSYRLNPNEYFSVTTA [SWI3] |  | 2.84 ± 0.2 | 2.3 ± 0.26 | 2.78 ± 0.22
17 | QFSQLNDPNAAVNMTQN [MED6] | 2.71 ± 0.089 | 2.91 ± 0.1 | 2.86 ± 0.039 | 2.62 ± 0.06
18 | NGLAIRRAAYGVVRYVM [RPS3] | 2.06 ± 0.057 | 1.91 ± 0.064 | 1.77 ± 0.074 | 1.61 ± 0.053
19 | MKYIQTEQQIEVPEGVT [RPL9A] | 2.54 ± 0.089 | 2.75 ± 0.082 | 2.83 ± 0.11 | 2.77 ± 0.053
20 | LENFKSYAGKQVVGPFH [SMC4] | 3.04 ± 0.076 | 3.2 ± 0.19 | 2.98 ± 0.11 | 2.98 ± 0.1
21 | EYKSLFVVGVDNVSSQQ [RPP0] | 3.22 ± 0.055 | 2.79 ± 0.067 | 3.29 ± 0.091 | 3.24 ± 0.053
22 | QSRLMSTSYHLNSTLES [MED6] | 2.79 ± 0.072 | 2.79 ± 0.054 | 1.97 ± 0.063 | 2.37 ± 0.062
23 | WKNLVLKLSQAFGSSAT [YJR042W/NUP85] | 2.58 ± 0.055 | 1.95 ± 0.053 | 2.22 ± 0.055 | 1.93 ± 0.044
24 | AFFHLFASLRVLPDADV [YJL039C/NUP192] | 1.17 ± 0.08 | 1.24 ± 0.078 | 1.36 ± 0.14 | 1.97 ± 0.066
25 | IPNLTAKPFQVTKEYFQ [FAS1] | 2.61 ± 0.051 | 2.95 ± 0.049 | 3.04 ± 0.061 | 2.79 ± 0.041
26 | GRYMEALALYVDAYRRL [SRP68] | 1.84 ± 0.074 | 1.91 ± 0.11 | 1.85 ± 0.15 | 1.79 ± 0.077

Row | Sequence | protein stability index (doa10∆) | protein stability index (pdr5∆) | protein stability index (san1∆) | protein stability index (ubr1∆)
27 | RSQDQENPAFLPGTNNN [SEC65] | 2.79 ± 0.082 | 2.75 ± 0.079 | 2.19 ± 0.063 | 2.8 ± 0.064
28 | ISSSTQCLRFLKETVIP [POP6] | 1.52 ± 0.074 | 1.87 ± 0.11 | 1.26 ± 0.22 | 2.27 ± 0.073
29 | FSSLAISEINFLHESSF [CSI1] | 2.21 ± 0.038 | 2.56 ± 0.035 | 2.26 ± 0.047 | 2.53 ± 0.039
30 | AIDHLKAELEKQKSWVP [YIL149C/MLP2] | 3.05 ± 0.076 | 2.83 ± 0.073 | 2.98 ± 0.11 | 2.91 ± 0.051
31 | FMKKLRAAKLAAPENEK [RPS15] | 2.85 ± 0.14 | 3.25 ± 0.17 | 2.48 ± 0.11 | 3.48 ± 0.22
32 | QDVDFYKNLDRGFSKDL [RRP6] | 3.44 ± 0.13 | 3.75 ± 0.15 | 3.25 ± 0.074 | 3.23 ± 0.097
33 | MSSTTPKLESVKWQYDP [SNF12] | 3.16 ± 0.065 | 3.25 ± 0.066 | 3.09 ± 0.048 | 3.39 ± 0.062
34 | ILRSIPDKLLGVILMFA [COB] | 2.35 ± 0.06 | 1.58 ± 0.046 | 1.65 ± 0.069 | 1.52 ± 0.054
35 | VIDTLAAGYGKILGKGR [RPL28] | 3.09 ± 0.12 | 2.63 ± 0.085 | 3.11 ± 0.17 | 3.52 ± 0.14
36 | QLELRQLNASISLIPEL [RRI2] | 2.55 ± 0.062 | 2.58 ± 0.069 | 2.42 ± 0.063 | 2.85 ± 0.043
37 | LRASFNKLSSILQNEHD [SRB4] | 2.1 ± 0.1 | 2.22 ± 0.069 | 1.52 ± 0.14 | 2.49 ± 0.053
38 | NSLLTIVWRFISENTFP [RPC34] | 1.82 ± 0.059 | 2.05 ± 0.042 | 2.08 ± 0.076 | 2.31 ± 0.045
39 | LKLSMADYNGALLRVTK [POP4] | 2.82 ± 0.076 | 2.52 ± 0.05 | 2.61 ± 0.07 | 2.52 ± 0.053
40 | AIQKKDNKDKEGNAGGD [YOR098C/NUP1] | 3.44 ± 0.17 | 3.32 ± 0.18 | 3.25 ± 0.1 | 3.44 ± 0.11
41 | QQQQQQQQQQQQQQQQH [GAL11] | 2.68 ± 0.033 | 2.8 ± 0.029 | 2.698 ± 0.025 | 2.878 ± 0.024
42 | QSSGKLKEYLDLVARTA [YDL116W/NUP84] | 2.63 ± 0.23 | 2.88 ± 0.16 | 3.01 ± 0.099 | 2.74 ± 0.15
43 | APPQTRKFQPPPGFKRK [SMB1] | 3.18 ± 0.088 | 3.19 ± 0.1 | 3.17 ± 0.084 | 3.28 ± 0.063
44 | NTNGTNASANSTSFSFN [YOR098C/NUP1] | 2.91 ± 0.045 | 3.12 ± 0.045 | 2.99 ± 0.042 | 3.06 ± 0.031
45 | PRRYGKGSRQCRVCSSH [RPS29A] | 2.81 ± 0.055 | 3.01 ± 0.043 | 2.92 ± 0.042 | 2.91 ± 0.038
46 | KFQGVLESEAQKKATMS [RPC34] | 3.54 ± 0.18 | 3.01 ± 0.18 |  | 3.34 ± 0.11
47 | DRKHVAALRTVKSLVDN [RPL9B] |  | 2.83 ± 0.22 | 2.83 ± 0.14 | 
48 | QIIFGVVEKKTVGSSNG [RPO21] | 1.66 ± 0.11 | 1.66 ± 0.098 | 1.66 ± 0.19 | 1.6 ± 0.066
49 | IFLSKENSAVAAKEGLA [COR1] | 1.48 ± 0.058 | 2.19 ± 0.072 | 1.95 ± 0.14 | 1.6 ± 0.062
50 | FVIGVIIGTFSDSYKVS [RRP40] | 1.43 ± 0.057 | 1.41 ± 0.068 | 2.04 ± 0.12 | 2.23 ± 0.078
51 | GFSFGSQLGGNKTVNEA [YJL041W/NSP1] | 3.18 ± 0.072 | 3.23 ± 0.074 | 3.32 ± 0.048 | 3.22 ± 0.048
52 | KSTDLTPKGNESEQELS [MTR3] | 3.39 ± 0.11 | 2.9 ± 0.089 | 2.46 ± 0.089 | 3.21 ± 0.054
